# Experimental data published in the supplement of paper PMC10126150.
# ± gives the standard deviation of the averaged measurements.
# System: ATP
# Assay: switch fluorescence ratio, 500 uM ATP over buffer (Cy3 cluster intensity, sum of 5 cycles each) (fold (ratio)); higher = stronger signal-on switching upon ATP binding; sequences stand for … in TCGTCGGCAGCGTCAGATGTGTATAAGAGACAGTTTTTTTTTTTTTTTTTTTTTTTTT…TC
# Conditions: aptamer strand: ATP DNA aptamer (quencher-CACCTGGGGGAGTATTGCGGAGGAAGG + anchor), 100 nM annealed; ATP concentration: 500 uM
# How it was run: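 Per cluster, summed Cy3 intensity from the target cycles was divided by that from the buffer cycles to give the fluorescence ratio, then averaged per switch-domain sequence. Clusters outside 100-1000 RFU were excluded. The Cy3-labelled switching-strand clusters, on a modified Illumina MiSeq flow-cell, were annealed to 100 nM quencher-labelled ATP aptamer and imaged in selection buffer, then after 15 min with 500 uM ATP at 22 °C, for five cycles with NaOH stripping and re-annealing between them.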
# 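Note: ATP exposure 15 min at 22 °C before imaging.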
row,Sequence,switch fluorescence ratio
1,TATTACTTAG,1.062 ± 0.01
2,TCATTAATAT,1.16 ± 0.22
3,TTGGCGGGGT,1.04 ± 0.081
4,GCGGTACGCT,1.08 ± 0.091
5,GAAGTACTAT,1.2 ± 0.021
6,TTTCACCCCT,1.09 ± 0.067
7,ACCTGATTAA,1.01 ± 0.018
8,TGCGCAACTT,1.0306 ± 0.001
9,GGGTTGCAGC,0.992 ± 0.032
10,CAATTCACCG,1.04 ± 0.022
11,ATCGTTTATT,0.99436 ± 0.00033
12,GGTGGTTTGG,1.023 ± 0.0045
13,ATTCAGTAAA,1 ± 0.022
14,GAGGACGGGG,1.01 ± 0.011
15,TTTTCCCCTC,1.64 ± 1
16,AGGGGGTATT,1.01 ± 0.024
17,TGGCAGAGGC,1.04 ± 0.038
18,AGGGCTGATA,1.009 ± 0.0013
19,TTTCCGAGGA,1.03 ± 0.069
20,AGGTTTTTGG,0.963 ± 0.012
21,CTCTAAGGC,1.094 ± 0.0084
22,GCCGTAGGGC,0.985 ± 0.011
23,ACCTTCCGGG,2.37 ± 0.084

row,Sequence,switch fluorescence ratio
1,CAAAGTAGGG,0.991 ± 0.032
2,GTTAGGTGTG,1.11 ± 0.13
3,AAAGATATC,0.984 ± 0.02
4,GTCTCAAGGG,0.981 ± 0.039
5,GGCCACTGGA,1.02 ± 0.021
6,CCTATGCGGT,2.6 ± 0.067
7,ACAGTAAGTT,1.07 ± 0.016
8,TTCACAGGAG,1.12 ± 0.05
9,CAAATTGCAG,0.967 ± 0.026
10,GGGAGGGTGC,1.02 ± 0.07
11,ACAGTGTCTT,1.01 ± 0.03
12,ACCTTACTTA,1.29 ± 0.029
13,TGTTGAAGAT,1.005 ± 0.0076
14,AAGGCAGGGG,1.05 ± 0.044
15,CATGTGTTTG,0.993 ± 0.014
16,AATTATGATG,0.9948 ± 0.0069
17,AGTACGTGCG,0.9781 ± 0.0081
18,AGGATGAGGT,0.978 ± 0.057
19,CATGTAGGTG,1.06 ± 0.048
20,AGGGTTTCCA,1.01 ± 0.06
21,GATGGCCATT,1.02 ± 0.018
22,ATTCGTTACT,1.03 ± 0.051
23,TGGATGGCCC,1.02 ± 0.016

row,Sequence,switch fluorescence ratio
1,CCGGCTTACG,1.2 ± 0.1
2,GCTATACGTA,1.22 ± 0.049
3,GGGGGGACTT,0.983 ± 0.029
4,AGAGGTCTGT,0.986 ± 0.0056
5,AAGAATTGTG,0.992 ± 0.032
6,TTTTCATTTC,1.01 ± 0.012
7,CGAGAAGGTG,1.24 ± 0.33
8,ATTTACACGC,1.02 ± 0.02
9,AATTTACTCT,1.07 ± 0.018
10,ATTGGCATCT,0.9925 ± 0.0079
11,TGGATTTGGA,0.999 ± 0.02
12,AGAGGCTCAG,1.08 ± 0.069
13,AAAAGGATTG,0.982 ± 0.04
14,GCCGGACTTT,1.01 ± 0.012
15,TTGACGCAGT,1.23 ± 0.03
16,TTCTTTGAAT,1.036 ± 0.0013
17,TATATGGTCC,0.9841 ± 0.0083
18,GAGGTTTTTA,0.986 ± 0.027
19,GAGTGGATAG,0.996 ± 0.018
20,CATATAGGGC,0.985 ± 0.02
21,TGGGTCCGTT,1.01 ± 0.036
22,TGGGAAAGGA,1.01 ± 0.051
23,CTGTTTGGGT,0.9759 ± 0.0026

row,Sequence,switch fluorescence ratio
1,TGCGGTTAGC,1.004 ± 0.006
2,CTGGTTGATT,0.997 ± 0.04
3,TGGGGAACGG,0.981 ± 0.031
4,AAAATTTACG,1.1 ± 0.16
5,CGCCGAGATT,1.08 ± 0.058
6,TCGTTGTTAG,0.992 ± 0.02
7,GGAGGAACAT,1.02 ± 0.016
8,GTTGTGCATA,1.02 ± 0.03
9,TTCGTAGAAA,1.05 ± 0.032
10,AAGGCCAGCG,0.953 ± 0.051
11,CAGTCATGGG,1 ± 0.035
12,AAGTAGTCGT,1.01 ± 0.05
13,GCGTTGGTCG,0.929 ± 0.0014
14,TCGTTTCCGT,0.984 ± 0.035
15,GACAGAAGTG,1.02 ± 0.019
16,GTTTTGGGTT,0.977 ± 0.017
17,GTATTTTTTT,0.967 ± 0.013
18,TTCAGGAGTG,0.993 ± 0.067
19,TGGAATGGAT,1.01 ± 0.043
20,ATGGTGTCTA,0.981 ± 0.038
21,TATTAGGGAT,0.9951 ± 0.0058
22,ATGTCGTCTC,1.003 ± 0.0091
23,CGTTAGTTCT,1 ± 0.029

row,Sequence,switch fluorescence ratio
1,AATAAATCCT,1.22 ± 0.021
2,TACGTAACTC,1.28 ± 0.028
3,TTGGCCGGGG,1.01 ± 0.029
4,GAAATCAGGT,1.02 ± 0.019
5,GCTGCTGGGT,1.01 ± 0.032
6,GATAGGGTGC,1.14 ± 0.044
7,AGTCCGGGTT,0.991 ± 0.036
8,AAGCTTCTGT,1.023 ± 0.0057
9,ACAGAAAGAC,1.15 ± 0.27
10,TAGAGATCTA,1.011 ± 0.0016
11,TAGATTGGTG,0.991 ± 0.04
12,AGGAGTTGGA,0.987 ± 0.013
13,GAAAAGATTA,0.997 ± 0.028
14,CAGGCAGCAT,1.32 ± 0.089
15,ACATTTTGGT,0.995 ± 0.03
16,TTTTCCCCCT,1.081 ± 0.0069
17,GGTAAAGTTG,1.07 ± 0.098
18,TTAATATTAT,0.978 ± 0.013
19,ATCTCGGGCT,0.973 ± 0.042
20,CACCGACTTT,1.06 ± 0.0014
21,AAACGGGCAG,0.985 ± 0.019
22,TCTGAGAGGA,0.972 ± 0.032
23,ACGGGGGAGT,1.03 ± 0.019

row,Sequence,switch fluorescence ratio
1,TCTTTGGACT,1.002 ± 0.0032
2,GAAGTTAGTT,0.993 ± 0.038
3,TGGTTAGATT,0.996 ± 0.034
4,CCAGGCTCTG,0.993 ± 0.006
5,TGAAGGTAAA,1.02 ± 0.042
6,CTGCGTGATG,1.03 ± 0.011
7,TAGGTTACGG,0.984 ± 0.024
8,GAGCATGAAA,0.974 ± 0.04
9,TTACGGCAGG,1.13 ± 0.092
10,CTTCAAAGTA,1.03 ± 0.026
11,AAGTCGCGTT,0.991 ± 0.0024
12,CGGGGGGGC,1.001 ± 0.01
13,ATGGGGTTAA,1.03 ± 0.022
14,GTTTGGTGC,1.02 ± 0.022
15,GGCATAGTTT,0.969 ± 0.026
16,AGACTTATTT,1.01 ± 0.013
17,ACGGGCCGGT,0.98 ± 0.069
18,CGAAGCAGGA,2.4 ± 0.097
19,GTGCAATAGT,3.71 ± 0.63
20,CCGGTGGGGT,1.01 ± 0.03
21,AATGTAATAA,1.05 ± 0.084
22,GGGGGTCATC,0.971 ± 0.011
23,ATAAGTGATC,0.981 ± 0.069

row,Sequence,switch fluorescence ratio
1,TATGGAGGAT,1.09 ± 0.13
2,AATCAGAGCG,1.021 ± 0.0021
3,GACAGCAGGT,1.07 ± 0.011
4,AGAAATGAAT,1.04 ± 0.024
5,AAGGATAATG,0.976 ± 0.019
6,TGCAGGGGCG,1.04 ± 0.14
7,TTATTACGGG,1.01 ± 0.038
8,TGGGCATATA,0.996 ± 0.012
9,TAAGGTGGCC,1.01 ± 0.013
10,GGTTGCATTA,0.9923 ± 0.0019
11,GCAAGTTACG,1.14 ± 0.041
12,AAAAACGTAT,1.03 ± 0.04
13,AAACCCGCCC,1.8128 ± 0.00028
14,GCAAAGGGCT,1 ± 0.035
15,TCAGTTTGTT,0.997 ± 0.023
16,TACGGAGATT,1.01 ± 0.035
17,CGAAAACGGT,0.999 ± 0.048
18,GGCGGTAGTG,0.999 ± 0.025
19,CAGGGTGATG,0.985 ± 0.024
